Results from patent US20240417482A1 (CONCEPT TO MEDICINE BIOTECH, published 2024).
Where a chain is given by its changes, count along the chain named. Read-outs that look alike come from different tables or passages of the source.

T1: mouse 4-1BB-His protein (mouse, UniProt P20334 24-187)
T1 construct: Recombinant His-tagged protein; also called mouse 4-1BB antigen; not shown: His tag
T1 sequence (looked up): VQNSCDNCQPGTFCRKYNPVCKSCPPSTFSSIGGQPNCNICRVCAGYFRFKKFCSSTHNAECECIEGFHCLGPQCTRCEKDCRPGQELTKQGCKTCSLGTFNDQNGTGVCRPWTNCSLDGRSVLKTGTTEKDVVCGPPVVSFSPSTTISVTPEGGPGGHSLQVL

T2: human OX40 protein (human, UniProt P43489 29-214, limits assumed)
T2 construct: Coated protein in ELISA
T2 sequence (looked up): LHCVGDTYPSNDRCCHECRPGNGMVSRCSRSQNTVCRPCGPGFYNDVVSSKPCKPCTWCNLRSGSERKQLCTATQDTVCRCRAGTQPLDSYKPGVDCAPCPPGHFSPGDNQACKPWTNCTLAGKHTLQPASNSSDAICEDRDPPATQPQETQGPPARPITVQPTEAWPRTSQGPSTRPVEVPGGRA

T3: cynomolgus 4-1BB-His protein (cynomolgus, UniProt A9YYE7 24-186)
T3 construct: Recombinant His-tagged protein; also called cyno 4-1BB antigen; not shown: His tag
T3 sequence: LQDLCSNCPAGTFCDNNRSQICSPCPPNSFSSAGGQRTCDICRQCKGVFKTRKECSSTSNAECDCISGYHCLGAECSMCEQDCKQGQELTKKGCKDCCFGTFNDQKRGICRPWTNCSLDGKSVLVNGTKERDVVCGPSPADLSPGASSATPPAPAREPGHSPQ

B1: B164 chimeric mAb (VHH)
VHH: EVQLVESGGGLVQAGGSLRLSCAASGSIFSYMFWYRQPQGKQREYVAHITSGGRTNYADSVTGRFTISRGNNDNTMYLQMNNLKPEDTAVYYCAADDAVYTDRTYWGQGTQVTVSS
notes: Alpaca VHH tested as 'chimeric mAb'
B2: B31-V3 humanized antibody (VHH)
VHH: QVQLVESGGGLVQPGGSLRLSCAASGDIFSIMFWYRQAPGKQREYVAHITSNGRTNYADSVTGRFTISRDNNKNTLYLQMNSLRAEDTAVYYCAADDATNTRTYWGQGTLVTVSS
notes: Humanized VHH captured on a Protein A chip; also called B31 VHH-V3
B3: B31 chimeric mAb (VHH)
VHH: QVQLVESGGGLVQAGGSLRLSCAASGDIFSIMFWYRQPQGKQREYVAHITSNGRTNYADSVTGRFTISRGNNDNTMYLQMDNLKPQDTAVYYCAADDATNTRTYWGQGTQVTVSS
notes: Alpaca VHH tested as 'chimeric mAb' expressed in 293F cells, purified by protein G, detected with anti-human IgG and captured on Protein A; also called B31 chimeric antibody
B4: B31-V4 humanized antibody (VHH)
VHH: B2 VHH with N72S, L76M, N81D
notes: Humanized VHH captured on a Protein A chip; also called B31 VHH-V4
B5: B31-V6 humanized antibody (VHH)
VHH: B2 VHH with A23S, N72S, A95R
notes: Humanized VHH captured on a Protein A chip; also called B31 VHH-V6
B6: B31-V2 humanized antibody (VHH)
VHH: B2 VHH with A23S, A47S, N72S
notes: Humanized VHH expressed in 293F cells and captured on a Protein A chip; also called B31 VHH-V2
B7: B31-V5 humanized antibody (VHH)
VHH: B2 VHH with A38P, P39Q, N81D
notes: Humanized VHH captured on a Protein A chip; also called B31 VHH-V5
B8: B16-V2 humanized antibody (VHH)
VHH: EVQLVESGGGLVQPGGSLRLSCAASGFTFSYYAIGWFRQAPGKEREGVSCISSSDGSTYYADSVKGRFTISRDNSKNTLYLQMNSLRAEDTAVYYCATDTTTRCPIWSYYVESDYWGQGTLVTVSS
notes: Humanized VHH; also called B16 VHH-V2
B9: B16 chimeric mAb (VHH)
VHH: B8 VHH with E1Q, F29L, S30D, S75A, L79V, R87K, A88P, L121Q
notes: as for B1
B10: B125 chimeric mAb (VHH)
VHH: B8 VHH with E1Q, T28A, Y31D, S75A, L79V, R87K, A88P, L121Q
notes: as for B1
B11: B210-V2 humanized antibody (VHH)
VHH: B8 VHH with D55G, G56R, Y59N, Y109N
notes: Humanized VHH; also called B210 VHH-V2
B12: B125-V2 humanized antibody (VHH)
VHH: B8 VHH with T28A, Y31D
notes: Humanized VHH; also called B125 VHH-V2
B13: B210-V3 humanized antibody (VHH)
VHH: B8 VHH with F27L, D55G, G56R, Y59N, Y109N
notes: Humanized VHH; also called B210 VHH-V3
B14: B210 chimeric mAb (VHH)
VHH: EVQLVESGGGLVQPGGSLRLSCAASGLSLDYYAIGWFRQAPGKEREGVSCISSSGRSTNYADSVKGRFTISRDNAKNTVYLQMNSLKPEDTADYYCATDTTTRCPIWSNYVESDYWGQGTQVTVSS
notes: as for B1

Experiments:
[1] = biological target: human 4-1BB expressed on cells (human) (UniProt Q07011); experiment: flow cytometry on HEK293-4-1BB cells, PE anti-human IgG, MFI
Chain of human 4-1BB expressed on cells (human) (Q07011 24-255): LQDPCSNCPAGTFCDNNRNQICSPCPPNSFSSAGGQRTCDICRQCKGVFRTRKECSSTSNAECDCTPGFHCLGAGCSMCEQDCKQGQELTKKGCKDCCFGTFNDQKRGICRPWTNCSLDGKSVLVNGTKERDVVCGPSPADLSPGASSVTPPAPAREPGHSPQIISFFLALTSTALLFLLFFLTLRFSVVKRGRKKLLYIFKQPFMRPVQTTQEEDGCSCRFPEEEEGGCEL

human 4-1BB-His protein [2] = biological target: T4, human 4-1BB-His protein (human, UniProt Q07011 24-186); experiment: ELISA, plate coated with human 4-1BB-His at 0.5 ug/ml, anti-human IgG-HRP detection, OD450 (panel Human 4-1BB ELISA)
T4 construct: Recombinant His-tagged protein; also called human 4-1BB-his tag; recombinant 4-1BB protein; not shown: His tag
Target sequence in this assay (Q07011 24-186 limits assumed): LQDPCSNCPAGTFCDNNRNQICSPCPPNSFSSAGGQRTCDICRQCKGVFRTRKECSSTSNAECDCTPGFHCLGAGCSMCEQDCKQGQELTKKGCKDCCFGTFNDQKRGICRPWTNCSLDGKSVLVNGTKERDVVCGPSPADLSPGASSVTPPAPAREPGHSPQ

human 4-1BB-His protein [3] = biological target: T4, human 4-1BB-His protein; experiment: ELISA, plate coated with human 4-1BB-His, anti-human IgG-HRP
Procedure: (§1) Briefly, microtiter plates were coated with human 4-1BB-His protein at 0.5 μg/ml in PBS, 100 μl/well at 4° C. overnight, then blocked with 150 μl/well of 1% BSA. […] The plates were washed with PBS/Tween and then incubated with Anti-Human IgG (H&L) (GOAT) Antibody Peroxidase Conjugated for 30 mins at 37° C. After washing, the plates were developed with TMB substrate and analyzed by spectrophotometer at OD 450 nm.

mouse 4-1BB-His protein [4] = biological target: T1, mouse 4-1BB-His protein; experiment: ELISA, plate coated with mouse 4-1BB-His 0.5 µg/ml
Procedure: as §1, with “Microtiter” for “Briefly, microtiter”, “mouse” for “human”

human OX40 protein = biological target: T2, human OX40 protein; experiment: ELISA, plate coated with human OX40 0.5 µg/ml
Procedure: as §1, with “CD40 protein or human OX40” for “4-1BB-His”

[5] = biological target: T3, cynomolgus 4-1BB-His protein; experiment: ELISA, plate coated with cynomolgus 4-1BB-His, anti-human IgG-HRP
Procedure: as §1, with “Microtiter” for “Briefly, microtiter”, “cynomolgus” for “human”

human CD40 protein = biological target: T5, human CD40 protein (human, UniProt P25942 21-193); experiment: ELISA, plate coated with human CD40 0.5 µg/ml
T5 construct: Coated protein in ELISA
T5 sequence (P25942 21-193 limits assumed): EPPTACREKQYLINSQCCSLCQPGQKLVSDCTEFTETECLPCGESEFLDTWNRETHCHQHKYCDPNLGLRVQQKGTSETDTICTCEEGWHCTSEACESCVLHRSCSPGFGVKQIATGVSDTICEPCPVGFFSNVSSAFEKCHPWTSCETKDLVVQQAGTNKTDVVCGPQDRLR
Procedure: as §1, with “CD40 protein or human OX40” for “4-1BB-His”

human 4-1BB-His protein [6] = biological target: T4, human 4-1BB-His protein; experiment: SPR, Biacore T200, antibody captured on Protein A chip, human 4-1BB-His as analyte
Procedure: A serial dilution of human 4-1BB-his tag protein was injected over captured antibody for 30 s at a flow rate of 30 μl/min. The antigen was allowed to dissociate for 360 s. All the experiments were carried out on a Biacore T200. Data analysis was carried out using the Biacore T200 evaluation software.

human 4-1BB-His protein [7] = biological target: T4, human 4-1BB-His protein; experiment: as above; remark: listed apart in the source
Procedure: The binding of the humanized antibodies to recombinant human 4-1BB protein (human 4-1BB-his tag) was tested by Biacore using a capture method. […] A serial dilution of human 4-1BB-his tag protein was injected over captured antibody for 30 s at a flow rate of 10 μl/min. The antigen was allowed to dissociate for 360 s. All the experiments were carried out on a Biacore T200.

mouse 4-1BB-His protein [8] = biological target: T1, mouse 4-1BB-His protein; experiment: ELISA, plate coated with mouse 4-1BB-His, anti-human IgG-HRP
Procedure: as §1, with “Microtiter” for “Briefly, microtiter”, “mouse” for “human”

Molecule	EC50 (human 4-1BB-His protein [3])	binding result (human OX40 protein)	EC50 [5]	binding result (human CD40 protein)	Kd (human 4-1BB-His protein [6])	koff (human 4-1BB-His protein [6])	kon (human 4-1BB-His protein [6])	Kd (human 4-1BB-His protein [7])	koff (human 4-1BB-His protein [7])	kon (human 4-1BB-His protein [7])	other results
Urelumab (antibody)											EC50 (read off the curve) [1]: 2 nM; EC50 (read off the curve) (human 4-1BB-His protein [2]): 10 ng/mL
B1	5.2 ng/mL	no binding	4.81 ng/mL	no binding	0.526 nM	0.000546 s⁻¹	1.04e+06 M⁻¹ s⁻¹				binding result (mouse 4-1BB-His protein [4]): no binding
B2								13.6 nM	0.00716 s⁻¹	526000 M⁻¹ s⁻¹	
B3	2.42 ng/mL	no binding	4.06 ng/mL	no binding	3.16 nM	0.0048 s⁻¹	1.52e+06 M⁻¹ s⁻¹				EC50 (read off the curve) [1]: 3 nM; binding result (mouse 4-1BB-His protein [4]): no binding
B4								4.74 nM	0.00545 s⁻¹	1.15e+06 M⁻¹ s⁻¹	
B5								6.58 nM	0.00156 s⁻¹	237000 M⁻¹ s⁻¹	
B6								13.1 nM	0.0068 s⁻¹	517000 M⁻¹ s⁻¹	
B7								4.97 nM	0.00646 s⁻¹	1.3e+06 M⁻¹ s⁻¹	
B8								1930 nM	0.0898 s⁻¹	46500 M⁻¹ s⁻¹	
B9	10.6 ng/mL	no binding	19.5 ng/mL	no binding	21.5 nM	0.00739 s⁻¹	343000 M⁻¹ s⁻¹				EC50 (mouse 4-1BB-His protein [8]): 16.3 ng/mL
B10	2.06 ng/mL	no binding	3.54 ng/mL	no binding	21 nM	0.00818 s⁻¹	390000 M⁻¹ s⁻¹				EC50 (read off the curve) [1]: 3 nM; EC50 (mouse 4-1BB-His protein [8]): 4.42 ng/mL
B11								765 nM	0.041 s⁻¹	53700 M⁻¹ s⁻¹	
B12								3070 nM	0.0266 s⁻¹	8670 M⁻¹ s⁻¹	
B13								2560 nM	0.0408 s⁻¹	15900 M⁻¹ s⁻¹	
B14	2.51 ng/mL	no binding	3.91 ng/mL	no binding	90.4 nM	0.00352 s⁻¹	38900 M⁻¹ s⁻¹				EC50 (mouse 4-1BB-His protein [8]): 402 ng/mL
